Numbered stars: 1 amine (or outer) side, 2 acyl side, 3 side chain; on linkers, the order of the positions; unused ones are H or OH. Square brackets hold non-standard residues; d marks the D form. * marks the point of attachment. hPhe(2,4-di-NO2) = 2,4-di-NO2 homophenylalanine, O=C([C@H](CCc1ccc([N+](=O)[O-])cc1[N+](=O)[O-])N[*:1])[*:2]; Phe(4-NHAc) = 4-acetamidophenylalanine, CC(=O)Nc1ccc(C[C@H](N[*:1])C(=O)[*:2])cc1; Phe(4-CH2SO3H) = N[C@@H](Cc1ccc(CS(=O)(=O)O)cc1)C(=O)O; Phe(4-NO2) = N[C@@H](Cc1ccc([N+](=O)[O-])cc1)C(=O)O; Phe(4-CH2NH2) = NCc1ccc(C[C@H](N)C(=O)O)cc1; Tyr(3-Cl) = N[C@@H](Cc1ccc(O)c(Cl)c1)C(=O)O; Dmt = Cc1cc(O)cc(C)c1C[C@H](N)C(=O)O; Dab = NCC[C@H](N)C(=O)O; Dap = NC[C@H](N)C(=O)O; Hexanoyl = CCCCCC(=O)*; Propionyl = CCC(=O)*
B1: VII-65-F (peptide)
peptide: Ac-[Dap]YYRWR-NH2
SMILES: CC(=O)N[C@@H](CN)C(=O)N[C@@H](Cc1ccc(O)cc1)C(=O)N[C@@H](Cc1ccc(O)cc1)C(=O)N[C@@H](CCCNC(=N)N)C(=O)N[C@@H](Cc1c[nH]c2ccccc12)C(=O)N[C@@H](CCCNC(=N)N)C(N)=O
notes: also called Ac-Dap-Tyr-Tyr-Arg-Trp-Arg-NH2
B2: VII-67-A (peptide)
peptide: Ac-[Dab]YYRWR-NH2
SMILES: CC(=O)N[C@@H](CCN)C(=O)N[C@@H](Cc1ccc(O)cc1)C(=O)N[C@@H](Cc1ccc(O)cc1)C(=O)N[C@@H](CCCNC(=N)N)C(=O)N[C@@H](Cc1c[nH]c2ccccc12)C(=O)N[C@@H](CCCNC(=N)N)C(N)=O
notes: also called Ac-Dab-Tyr-Tyr-Arg-Trp-Arg-NH2
B3: VII-75-B (peptide)
peptide: Ac-RY[Phe(4-CH2SO3H)]RWR-NH2
SMILES: CC(=O)N[C@@H](CCCNC(=N)N)C(=O)N[C@@H](Cc1ccc(O)cc1)C(=O)N[C@@H](Cc1ccc(CS(=O)(=O)O)cc1)C(=O)N[C@@H](CCCNC(=N)N)C(=O)N[C@@H](Cc1c[nH]c2ccccc12)C(=O)N[C@@H](CCCNC(=N)N)C(N)=O
notes: also called Ac-Arg-Tyr-Phe(4-CH2SO3H)-Arg-Trp-Arg-NH2
B4: VII-79-A (peptide)
peptide: Ac-RY[Phe(4-CH2NH2)]RWR-NH2
SMILES: CC(=O)N[C@@H](CCCNC(=N)N)C(=O)N[C@@H](Cc1ccc(O)cc1)C(=O)N[C@@H](Cc1ccc(CN)cc1)C(=O)N[C@@H](CCCNC(=N)N)C(=O)N[C@@H](Cc1c[nH]c2ccccc12)C(=O)N[C@@H](CCCNC(=N)N)C(N)=O
notes: also called Ac-Arg-Tyr-Phe(4-CH2NH2)-Arg-Trp-Arg-NH2
B5: VII-73-A (peptide)
peptide: Ac-RY[Dmt]RWR-NH2
SMILES: CC(=O)N[C@@H](CCCNC(=N)N)C(=O)N[C@@H](Cc1ccc(O)cc1)C(=O)N[C@@H](Cc1c(C)cc(O)cc1C)C(=O)N[C@@H](CCCNC(=N)N)C(=O)N[C@@H](Cc1c[nH]c2ccccc12)C(=O)N[C@@H](CCCNC(=N)N)C(N)=O
notes: also called Ac-Arg-Tyr-Tyr(2,6-di-Me)-Arg-Trp-Arg-NH2
B6: VII-63-B (peptide)
peptide: Ac-RY[Phe(4-NO2)]RWR-NH2
SMILES: CC(=O)N[C@@H](CCCNC(=N)N)C(=O)N[C@@H](Cc1ccc(O)cc1)C(=O)N[C@@H](Cc1ccc([N+](=O)[O-])cc1)C(=O)N[C@@H](CCCNC(=N)N)C(=O)N[C@@H](Cc1c[nH]c2ccccc12)C(=O)N[C@@H](CCCNC(=N)N)C(N)=O
notes: also called Ac-Arg-Tyr-Phe(4-NO2)-Arg-Trp-Arg-NH2
B7: VII-87-B (peptide)
peptide: Ac-R[Tyr(3-Cl)]YRWR-NH2
SMILES: CC(=O)N[C@@H](CCCNC(=N)N)C(=O)N[C@@H](Cc1ccc(O)c(Cl)c1)C(=O)N[C@@H](Cc1ccc(O)cc1)C(=O)N[C@@H](CCCNC(=N)N)C(=O)N[C@@H](Cc1c[nH]c2ccccc12)C(=O)N[C@@H](CCCNC(=N)N)C(N)=O
notes: also called Ac-Arg-Tyr(3-Cl)-Tyr-Arg-Trp-Arg-NH2
B8: VII-71-B (peptide)
peptide: Ac-RY[hPhe(2,4-di-NO2)]RWR-NH2
SMILES: CC(=O)N[C@@H](CCCNC(=N)N)C(=O)N[C@@H](Cc1ccc(O)cc1)C(=O)N[C@@H](CCc1ccc([N+](=O)[O-])cc1[N+](=O)[O-])C(=O)N[C@@H](CCCNC(=N)N)C(=O)N[C@@H](Cc1c[nH]c2ccccc12)C(=O)N[C@@H](CCCNC(=N)N)C(N)=O
notes: also called Ac-Arg-Tyr-hPhe(2,4-di-NO2)-Arg-Trp-Arg-NH2
B9: VII-77-A (peptide)
peptide: Ac-RY[Phe(4-NHAc)]RWR-NH2
SMILES: CC(=O)Nc1ccc(C[C@H](NC(=O)[C@H](Cc2ccc(O)cc2)NC(=O)[C@H](CCCNC(=N)N)NC(C)=O)C(=O)N[C@@H](CCCNC(=N)N)C(=O)N[C@@H](Cc2c[nH]c3ccccc23)C(=O)N[C@@H](CCCNC(=N)N)C(N)=O)cc1
notes: also called Ac-Arg-Tyr-Phe(4-NHAc)-Arg-Trp-Arg-NH2
B10: IV-21-C Propionyl-AYYRWR-NH2 (peptide)
peptide: Propionyl-AYYRWR-NH2
SMILES: CCC(=O)N[C@@H](C)C(=O)N[C@@H](Cc1ccc(O)cc1)C(=O)N[C@@H](Cc1ccc(O)cc1)C(=O)N[C@@H](CCCNC(=N)N)C(=O)N[C@@H](Cc1c[nH]c2ccccc12)C(=O)N[C@@H](CCCNC(=N)N)C(N)=O
B11: IV-29-B Propionyl-RYYRAR-NH2 (peptide)
peptide: Propionyl-RYYRAR-NH2
SMILES: CCC(=O)N[C@@H](CCCNC(=N)N)C(=O)N[C@@H](Cc1ccc(O)cc1)C(=O)N[C@@H](Cc1ccc(O)cc1)C(=O)N[C@@H](CCCNC(=N)N)C(=O)N[C@@H](C)C(=O)N[C@@H](CCCNC(=N)N)C(N)=O
B12: IV-35-B Hexanoyl-RAYRWR-NH2 (peptide)
peptide: Hexanoyl-RAYRWR-NH2
SMILES: CCCCCC(=O)N[C@@H](CCCNC(=N)N)C(=O)N[C@@H](C)C(=O)N[C@@H](Cc1ccc(O)cc1)C(=O)N[C@@H](CCCNC(=N)N)C(=O)N[C@@H](Cc1c[nH]c2ccccc12)C(=O)N[C@@H](CCCNC(=N)N)C(N)=O
B13: IV-23-B Propionyl-RAYRWR-NH2 (peptide)
peptide: Propionyl-RAYRWR-NH2
SMILES: CCC(=O)N[C@@H](CCCNC(=N)N)C(=O)N[C@@H](C)C(=O)N[C@@H](Cc1ccc(O)cc1)C(=O)N[C@@H](CCCNC(=N)N)C(=O)N[C@@H](Cc1c[nH]c2ccccc12)C(=O)N[C@@H](CCCNC(=N)N)C(N)=O
B14: IV-33-B Hexanoyl-AYYRWR-NH2 (peptide)
peptide: Hexanoyl-AYYRWR-NH2
SMILES: CCCCCC(=O)N[C@@H](C)C(=O)N[C@@H](Cc1ccc(O)cc1)C(=O)N[C@@H](Cc1ccc(O)cc1)C(=O)N[C@@H](CCCNC(=N)N)C(=O)N[C@@H](Cc1c[nH]c2ccccc12)C(=O)N[C@@H](CCCNC(=N)N)C(N)=O
B15: IV-31-B Propionyl-RYYRWA-NH2 (peptide)
peptide: Propionyl-RYYRWA-NH2
SMILES: CCC(=O)N[C@@H](CCCNC(=N)N)C(=O)N[C@@H](Cc1ccc(O)cc1)C(=O)N[C@@H](Cc1ccc(O)cc1)C(=O)N[C@@H](CCCNC(=N)N)C(=O)N[C@@H](Cc1c[nH]c2ccccc12)C(=O)N[C@@H](C)C(N)=O
B16: IV-25-B Propionyl-RYARWR-NH2 (peptide)
peptide: Propionyl-RYARWR-NH2
SMILES: CCC(=O)N[C@@H](CCCNC(=N)N)C(=O)N[C@@H](Cc1ccc(O)cc1)C(=O)N[C@@H](C)C(=O)N[C@@H](CCCNC(=N)N)C(=O)N[C@@H](Cc1c[nH]c2ccccc12)C(=O)N[C@@H](CCCNC(=N)N)C(N)=O
B17: IV-27-B Propionyl-RYYAWR-NH2 (peptide)
peptide: Propionyl-RYYAWR-NH2
SMILES: CCC(=O)N[C@@H](CCCNC(=N)N)C(=O)N[C@@H](Cc1ccc(O)cc1)C(=O)N[C@@H](Cc1ccc(O)cc1)C(=O)N[C@@H](C)C(=O)N[C@@H](Cc1c[nH]c2ccccc12)C(=O)N[C@@H](CCCNC(=N)N)C(N)=O

Target: T1, human ORL-1 receptor (opioid receptor like 1) (human, UniProt P41146 1-370)
T1 construct: whole, on cells; Assays were run on membranes of CHO cells transfected with human ORL-1; also called opiate receptor like 1; nociceptin receptor
T1 sequence (P41146 whole entry): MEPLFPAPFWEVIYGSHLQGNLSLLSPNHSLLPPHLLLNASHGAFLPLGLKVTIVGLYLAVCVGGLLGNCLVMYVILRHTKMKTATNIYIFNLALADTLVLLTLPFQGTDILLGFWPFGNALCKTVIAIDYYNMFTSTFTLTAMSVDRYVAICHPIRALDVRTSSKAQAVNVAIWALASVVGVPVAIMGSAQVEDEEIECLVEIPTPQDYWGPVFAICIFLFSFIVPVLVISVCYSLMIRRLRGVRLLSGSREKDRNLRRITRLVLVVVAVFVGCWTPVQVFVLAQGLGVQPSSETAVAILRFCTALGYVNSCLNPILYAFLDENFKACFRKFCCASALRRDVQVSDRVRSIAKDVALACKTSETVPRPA
Assay: [3H]nociceptin displacement, membranes of CHO cells transfected with human ORL-1; Ki=IC50/(1+L/Kd)
Experimental: Receptor binding studies were conducted on human ORL1 (opiate receptor like 1) transfected into Chinese hamster ovary (CHO) cells using each of the hexapeptide analog compounds of Table 3. All the compounds were evaluated for binding affinities. […] The data shown in Table 5 represents the average±SEM of at least two experiments conducted in triplicate.
Cells are removed from the plates by scraping with a rubber policeman, and then homogenized in Tris buffer using a Polytron homogenizer. Following this homogenization step, the cellular mixture is centrifuged once and washed by an additional centrifugation at 40,000×g for 15 min. The pellet formed during the centrifugation is re-suspended in 50 mM Tris, pH 7.5. […] Samples of the suspension are then filtered over glass fiber filters using a Wallac cell harvester.
For the data in Table 5, binding was conducted as described above. IC₅₀ values and Hill coefficients were determined using the curve-fitting program Prism. K₁ values were calculated using the equation K₁=IC₅₀/(1+[L]/Kd). […] The data in Table 5 represent the average±SEM of at least two experiments conducted in triplicate.

Binder | Ki [nM]
B1 | 28.1
B2 | 5.59
B3 | 26.7
B4 | 2.54
B5 | 0.04
B6 | 0.17
B7 | 0.26
B8 | 0.63
B9 | 0.88

Target: T1, human ORL-1 receptor (opioid receptor …)
Assay: cell-based or functional assay

Binder | % Stimulation of [35S]GTPγS binding [%] | EC50 (nM) of stimulation of [35S]GTPγS binding [nM]
B1 | 13.7 | –
B2 | < 20 | –
B3 | < 20 | –
B4 | < 20 | –
B5 | 52.7 | 5.2
B6 | 43.2 | 3.2
B7 | 72 | 3.9
B8 | 33.6 | 7.5
B9 | 19 | 115

Target: T1, human ORL-1 receptor (opioid receptor …)
Assay: binding assay at ORL1 (taken as [3H]nociceptin displacement as in Table 1)

Binder | IC50 [nM]
B10 | 1780
B11 | 1890
B12 | 113
B13 | 182
B14 | 1020
B15 | 76
B16 | 495
B17 | 400
